Data set [1] addresses T1, cytochrome c (Equus caballus (equine heart), UniProt P00004 2-105). The data set can be described thus: PACE-FA; mobility correction; n=1.85; 10 mM NH4OAc pH 6.8 (fluorescence: 2.0 uM cyt c, 2.0-14.0 uM aptamer, 30 min); PACE-FA: NH4OAc pH 6.8, HPC-coated capillary; temperature not stated. As to conditions: protein: commercial; tags: none; multi-loop structure (as claimed in text).

Data set [2] addresses T1, cytochrome c. The data set can be described thus: PACE-FA; raw data, uncorrected; n=2.05; 10 mM NH4OAc pH 6.8 (fluorescence: 2.0 uM cyt c, 2.0-14.0 uM aptamer, 30 min); PACE-FA: NH4OAc pH 6.8, HPC-coated capillary; temperature not stated. The settings on record: protein: commercial; tags: none; multi-loop structure (as claimed in text).
Data set [3] deals with T1, cytochrome c. The data set is described as follows: PACE-FA; specific binding fit; n=1.25; lambda 6.90e4 M-1; 10 mM NH4OAc pH 6.8 (fluorescence: 2.0 uM cyt c, 2.0-14.0 uM aptamer, 30 min); PACE-FA: NH4OAc pH 6.8, HPC-coated capillary; temperature not stated. The settings on record: protein: commercial; tags: none; multi-loop structure (as claimed in text).
Data set [4] deals with T1, cytochrome c. The data set can be described thus: fluorescence titration; cyt c emission at 292 nm; Benesi-Hildebrand; 10 mM NH4OAc pH 6.8 (fluorescence: 2.0 uM cyt c, 2.0-14.0 uM aptamer, 30 min); PACE-FA: NH4OAc pH 6.8, HPC-coated capillary; temperature not stated. The settings on record: protein: commercial, tags: none.
Data set [5] deals with T1, cytochrome c. The data set can be described thus: PACE-FA; mobility correction; n=1.10; 10 mM NH4OAc pH 6.8 (fluorescence: 2.0 uM cyt c, 2.0-14.0 uM aptamer, 30 min); PACE-FA: NH4OAc pH 6.8, HPC-coated capillary; temperature not stated. As to conditions: protein: commercial; tags: none.
Data set [6] addresses T1, cytochrome c. The data set can be described thus: PACE-FA; raw data, uncorrected; n=1.06; 10 mM NH4OAc pH 6.8 (fluorescence: 2.0 uM cyt c, 2.0-14.0 uM aptamer, 30 min); PACE-FA: NH4OAc pH 6.8, HPC-coated capillary; temperature not stated. The settings on record: protein: commercial; tags: none.
In data set [7] the target is T1, cytochrome c. The data set is described as follows: PACE-FA; specific binding fit; n=0.84; lambda 2.83e4 M-1; 10 mM NH4OAc pH 6.8 (fluorescence: 2.0 uM cyt c, 2.0-14.0 uM aptamer, 30 min); PACE-FA: NH4OAc pH 6.8, HPC-coated capillary; temperature not stated. The settings on record: protein: commercial; tags: none.
Data set [8] has as its target T1, cytochrome c. The data set is described as follows: PACE-FA; mobility correction; n=1.30; 10 mM NH4OAc pH 6.8 (fluorescence: 2.0 uM cyt c, 2.0-14.0 uM aptamer, 30 min); PACE-FA: NH4OAc pH 6.8, HPC-coated capillary; temperature not stated. The settings on record: protein: commercial; tags: none.
The target in data set [9] is T1, cytochrome c. The data set is described as follows: PACE-FA; raw data, uncorrected; n=1.47; 10 mM NH4OAc pH 6.8 (fluorescence: 2.0 uM cyt c, 2.0-14.0 uM aptamer, 30 min); PACE-FA: NH4OAc pH 6.8, HPC-coated capillary; temperature not stated. The settings on record: protein: commercial; tags: none.
Data set [10] has as its target T1, cytochrome c. The data set is described as follows: PACE-FA; specific binding fit; n=1.22; lambda 7.11e3 M-1; 10 mM NH4OAc pH 6.8 (fluorescence: 2.0 uM cyt c, 2.0-14.0 uM aptamer, 30 min); PACE-FA: NH4OAc pH 6.8, HPC-coated capillary; temperature not stated. The settings on record: protein: commercial; tags: none.

T1 sequence (P00004 2-105): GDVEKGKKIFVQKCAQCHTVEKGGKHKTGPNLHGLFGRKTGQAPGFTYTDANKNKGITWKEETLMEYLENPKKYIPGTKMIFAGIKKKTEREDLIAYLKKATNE

B1: Apt76 (ssDNA)
DNA: ATCGATAAGCTTCCAGAGCCGTGTCTGGGGCCGACCGGCGCATTGGGTACGTTGTTGCCGTAGAATTCCTGCAGCC
As to B1, the Ka with cytochrome c [1] is 676000 M⁻¹; with cytochrome c [2], 1.65e+06 M⁻¹; with cytochrome c [3] it was 1.53e+06 M⁻¹; with cytochrome c [4] (multi-loop structure (as claimed in text)), 868000 M⁻¹.

As to CCGTGTCTGGGGCCGACCGGCGCATTGGGTACGTTGTTGC (ssDNA) [Apt40], the Ka in the data set with cytochrome c [5] stood at 545000 M⁻¹; with cytochrome c [6] it was 2.01e+06 M⁻¹; in the data set with cytochrome c [7] it was 840000 M⁻¹; with cytochrome c [4], 151000 M⁻¹.

B2: Apt61 (ssDNA)
DNA: AGTGTGAAATATCTAAACTAAATGTGGAGGGTGGGACGGGAAGAAGTTTATTTTTCACACT
On to B2, for which the Ka is 643000 M⁻¹ in the data set with cytochrome c [8], 1.06e+06 M⁻¹ with cytochrome c [9], 712000 M⁻¹ with cytochrome c [10] and 625000 M⁻¹ with cytochrome c [4].

These data come from publication PMC12572689, “Characterization of the Specific Binding Between Aptamers and Cytochrome c With Pressure‐Assisted Capillary Electrophoresis Frontal Analysis”.
